Assay results reported in paper PMC4284802, “The tumour suppressor DLC2 ensures mitotic fidelity by coordinating spindle positioning and cell–cell adhesion” (Nature Communications, 2014).

Target: T1, His-tagged recombinant protein containing the forkhead-associated (FHA) domain of Kif1B (residues 367-999) (human, UniProt O60333-2 367-999)
T1 construct: cloned into pRSET-A; Vector pRSET-A; also called Kif1B FHA domain; His-Kif1B; source: E. coli BL21pLysS, purified
T1 sequence (looked up): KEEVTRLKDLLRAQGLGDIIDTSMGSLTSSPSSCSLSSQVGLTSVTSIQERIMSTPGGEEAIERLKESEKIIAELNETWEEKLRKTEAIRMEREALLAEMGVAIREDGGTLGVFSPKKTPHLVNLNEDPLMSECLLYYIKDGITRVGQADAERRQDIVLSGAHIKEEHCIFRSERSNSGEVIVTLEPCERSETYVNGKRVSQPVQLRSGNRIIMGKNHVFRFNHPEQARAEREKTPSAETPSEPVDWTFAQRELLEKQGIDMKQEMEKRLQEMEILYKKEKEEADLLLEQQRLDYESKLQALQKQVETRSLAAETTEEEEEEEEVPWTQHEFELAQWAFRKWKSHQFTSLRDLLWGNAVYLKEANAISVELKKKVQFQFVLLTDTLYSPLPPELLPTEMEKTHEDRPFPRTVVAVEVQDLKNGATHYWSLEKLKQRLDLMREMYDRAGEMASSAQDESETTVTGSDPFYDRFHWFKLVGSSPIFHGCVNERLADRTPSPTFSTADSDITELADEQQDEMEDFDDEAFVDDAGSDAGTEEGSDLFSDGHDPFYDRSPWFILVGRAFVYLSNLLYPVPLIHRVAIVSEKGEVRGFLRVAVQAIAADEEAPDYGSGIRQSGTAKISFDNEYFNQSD
Assay: pull-down; purified GST-SAM domain on glutathione-agarose beads incubated 2 h with recombinant His-tagged Kif1B fusion proteins; immunoblot with anti-GST and anti-His
Conditions: both partners purified

binding result: binds
B1: DLC2 SAM domain (residues 1-130) fused to GST (domain or fragment, human, UniProt Q9Y3M8-1 1-130, looked up)
chain: MFSQVPRTPASGCYYLNSMTPEGQEMYLRFDQTTRRSPYRMSRILARHQLVTKIQQEIEAKEACDWLRAAGFPQYAQLYEDSQFPINIVAVKNDHDFLEKDLVEPLCRRLNTLNKCASMKLDVNFQRKKG
notes: cloned into pGEX4T3; Vector pGEX4T3; also called SAM domain construct; GST-fusion protein containing the SAM domain; source: E. coli BL21pLysS, purified (glutathione-agarose)
